From patent publication US10450368 (DUKE UNIVERSITY, dated 2019)

Key:
CH505w136.B18D8gp120 = test: ELISA
[1] = molecular target: T1, CH505.TF mutant gp120 M20 (HIV-1); test: ELISA
T1 construct: domain: gp120

CH505.M21D8gp120/293F = test: ELISA
CH505.M5D8gp120293F = test: ELISA
CH505.M10D8gp120 = test: ELISA
CH505.TF mutant gp120 M6 = molecular target: T2, CH505.TF mutant gp120 M6 (HIV-1); test: ELISA
T2 construct: domain: gp120

CH505.M9D8gp120/293F = test: ELISA
CH505.M7D8gp120/293F = test: ELISA
CH505.M19D8gp120 = test: ELISA
CH505.M11D8gp120/293F = test: ELISA
CH505.TF mutant gp120 M8 = molecular target: T3, CH505.TF mutant gp120 M8 (HIV-1); test: ELISA
T3 construct: domain: gp120

Scl-70 [2] = molecular target: T4, Scl-70 (UniProt P11387 1-765); test: AtheNA, Ab 25 ug/ml
T4 sequence: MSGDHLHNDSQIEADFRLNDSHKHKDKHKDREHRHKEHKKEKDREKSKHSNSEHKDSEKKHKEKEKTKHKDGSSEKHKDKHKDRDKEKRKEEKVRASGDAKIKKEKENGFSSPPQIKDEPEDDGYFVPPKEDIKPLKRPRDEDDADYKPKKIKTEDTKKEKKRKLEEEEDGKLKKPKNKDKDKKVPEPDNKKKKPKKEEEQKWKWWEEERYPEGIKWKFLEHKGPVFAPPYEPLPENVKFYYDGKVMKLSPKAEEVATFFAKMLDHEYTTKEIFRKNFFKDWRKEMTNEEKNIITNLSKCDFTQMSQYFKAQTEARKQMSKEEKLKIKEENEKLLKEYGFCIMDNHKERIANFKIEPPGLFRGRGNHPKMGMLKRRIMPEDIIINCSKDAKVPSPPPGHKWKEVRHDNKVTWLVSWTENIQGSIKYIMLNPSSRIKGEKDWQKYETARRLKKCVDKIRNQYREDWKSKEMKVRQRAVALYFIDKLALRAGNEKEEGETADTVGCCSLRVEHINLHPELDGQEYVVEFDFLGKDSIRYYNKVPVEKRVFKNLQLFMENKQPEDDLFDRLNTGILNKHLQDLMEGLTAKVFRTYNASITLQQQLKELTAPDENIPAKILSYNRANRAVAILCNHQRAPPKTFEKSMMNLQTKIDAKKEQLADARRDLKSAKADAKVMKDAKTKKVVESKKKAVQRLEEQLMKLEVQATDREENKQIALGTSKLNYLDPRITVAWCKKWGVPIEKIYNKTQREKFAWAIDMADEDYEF

Histones [3] = molecular target: T5, Histones; test: AtheNA, Ab 25 ug/ml
T5 construct: Mixture of proteins

RNP (ribonucleoprotein) [4] = molecular target: T6, RNP (ribonucleoprotein); test: AtheNA, Ab 25 ug/ml
T6 construct: Protein-RNA complex

SSA [5] = molecular target: T7, SSA; test: AtheNA, Ab 25 ug/ml
T7 construct: also called SSA (Ro)

Sm (Smith antigen) [6] = molecular target: T8, Sm (Smith antigen); test: AtheNA, Ab 25 ug/ml
T8 construct: Protein complex

Histones [7] = molecular target: T5, Histones; test: AtheNA, Ab 50 ug/ml
SSA [8] = molecular target: T7, SSA; test: AtheNA, Ab 50 ug/ml
Sm (Smith antigen) [9] = molecular target: T8, Sm (Smith antigen); test: AtheNA, Ab 50 ug/ml
[10] = molecular target: T9, HIV-1 CH505 transmitted/founder gp120 Env (HIV-1); test: competition ELISA, blocking of CH106 binding to gp120
T9 construct: domain: gp120; also called CH505.TF gp120; CH505 TF gp120 Env

CH505w020.14D8gp120 = molecular target: T10, CH505w020.14D8gp120; test: ELISA
T10 construct: also called CH505w20.14 gp120

CH0505_CON D7gp120/293i = test: ELISA
CH505w030.20D8gp120/293F = molecular target: T11, CH505w030.20D8gp120/293F; test: ELISA
T11 construct: also called CH505w30.20 gp120

CH505.w30.12D8gp120 = molecular target: T12, CH505.w30.12D8gp120; test: ELISA
T12 construct: also called CH505w30.12 gp120

Scl-70 [11] = molecular target: T4, Scl-70; test: AtheNA, Ab 6.25 ug/ml
Histones [12] = molecular target: T5, Histones; test: AtheNA, Ab 6.25 ug/ml
RNP (ribonucleoprotein) [13] = molecular target: T6, RNP (ribonucleoprotein); test: AtheNA, Ab 6.25 ug/ml
SSA [14] = molecular target: T7, SSA; test: AtheNA, Ab 6.25 ug/ml
Sm (Smith antigen) [15] = molecular target: T8, Sm (Smith antigen); test: AtheNA, Ab 6.25 ug/ml
Scl-70 [16] = molecular target: T4, Scl-70; test: AtheNA, Ab 12.5 ug/ml
Histones [17] = molecular target: T5, Histones; test: AtheNA, Ab 12.5 ug/ml
RNP (ribonucleoprotein) [18] = molecular target: T6, RNP (ribonucleoprotein); test: AtheNA, Ab 12.5 ug/ml
SSA [19] = molecular target: T7, SSA; test: AtheNA, Ab 12.5 ug/ml
Sm (Smith antigen) [20] = molecular target: T8, Sm (Smith antigen); test: AtheNA, Ab 12.5 ug/ml

B1: CH236 (antibody, V domains shown)
VH: QVQLVQSGAAVKRPGASVTISCRASGYTFTTYYIHWVRQAPGQRLELMGMIDPSRGRTDYAQKFQGRVTMSRDTSTSTLYMELRSLRPDDTALYYCVRNVGTEGSLLHYDYWGQGTLVTVSS
VL: EIVLTQSPATLSVSPGERVTLSCRASQSVRNNLAWYRQKRGQAPRLLIYGASTRATGIPARFSGSGSGTEFTLTISSMQSEDFAVYYCQQYNNWWTFGQGTKVEIK
notes: also called CH236_4A/293i
LogAUC (CH505w136.B18D8gp120): 3.51
LogAUC [1]: 0
LogAUC (CH505.M21D8gp120/293F): 0
LogAUC (CH505.M5D8gp120293F): 7.27
LogAUC (CH505.M10D8gp120): 6.07
LogAUC (CH505.TF mutant gp120 M6): 6.31
LogAUC (CH505.M9D8gp120/293F): 0
LogAUC (CH505.M7D8gp120/293F): 0
LogAUC (CH505.M19D8gp120): 1.54
LogAUC (CH505.M11D8gp120/293F): 1.43
LogAUC (CH505.TF mutant gp120 M8): 0
AtheNA signal (Scl-70 [2]): 62 relative luminescence units
AtheNA signal (Histones [3]): 193 relative luminescence units
AtheNA signal (RNP (ribonucleoprotein) [4]): 69 relative luminescence units
AtheNA signal (SSA [5]): 224 relative luminescence units
AtheNA signal (Sm (Smith antigen) [6]): 165 relative luminescence units
AtheNA signal (Histones [7]): 138 relative luminescence units
AtheNA signal (SSA [8]): 177 relative luminescence units
AtheNA signal (Sm (Smith antigen) [9]): 128 relative luminescence units
IC50 [10]: 82.2 µg/mL
LogAUC (CH505w020.14D8gp120): 6.72
LogAUC (CH0505_CON D7gp120/293i): 6.89
LogAUC (CH505w030.20D8gp120/293F): 6.23
LogAUC (CH505.w30.12D8gp120): 0.95
AtheNA signal (Scl-70 [11]): 31 relative luminescence units
AtheNA signal (Histones [12]): 154 relative luminescence units
AtheNA signal (RNP (ribonucleoprotein) [13]): 40 relative luminescence units
AtheNA signal (SSA [14]): 44 relative luminescence units
AtheNA signal (Sm (Smith antigen) [15]): 184 relative luminescence units
AtheNA signal (Scl-70 [16]): 50 relative luminescence units
AtheNA signal (Histones [17]): 234 relative luminescence units
AtheNA signal (RNP (ribonucleoprotein) [18]): 78 relative luminescence units
AtheNA signal (SSA [19]): 185 relative luminescence units
AtheNA signal (Sm (Smith antigen) [20]): 258 relative luminescence units
